Laboratory results taken from the RNAGym collection of RNA variant scans (doi:10.1093/molbev/msab373).

B1: Azoarcus group I ribozyme (parent)
chain: GUGCCUUGCGCCGGGAAACCACGCAAGGGAUGGUGUCAAAUUCGGCGAAACCUAAGCGCCCGCCCGGGCGUAUGGCAACGCCGAGCCAAGCUUCGGCGCCUGCGCCGAUGAAGGUGUAGAGACUAGACGGCACCCACCUAAGGCAAACGCUAUGGUGAAGGCAUAGUCCAGGGAGUGGCGAAAGUCACACAAACCGG

Variants of: B1
Assay: reverse-splicing fitness (ratio to wild type); higher = more active; in vitro selection; Mg2+ level not given
Outline: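 An in vitro group I ribozyme library with randomized positions was T7-transcribed and gel-purified. In triplicate, 10 pmol RNA in EPPS pH 7.5 was reacted with 50 pmoles of a 30-nt RNA substrate for 1 h at 37 °C across several added MgCl2 levels (1–48 mM), then stopped with EDTA. Products were reverse transcribed from a substrate-complementary primer, PCR-amplified and sequenced (HiSeq 4000). Fitness is a variant's read proportion after selection over that before, normalised to wild type.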
Variant C82A A111G A145C C150A C169U U176C has a reverse-splicing fitness of 0.00831. C82A A111G A145C C150A C169U U176A showed a reverse-splicing fitness of 0.0133. In the case of C82A A111G A145C C150A C169U U176G, the reverse-splicing fitness is reported as 0.00626. Variant C82A A111U A120C A145C C150G C169U U176G has a reverse-splicing fitness of 0.00543. C82A A111U A120C A145C C150G C169U U176C showed a reverse-splicing fitness of 0.0102. Variant C82A A111U A120C A145C C150G C169U U176A has a reverse-splicing fitness of 0.00683. Variant C82A A111G A145U C150A U176G has a reverse-splicing fitness of 0.0106. C82A A111G A145U C150A U176A gave a reverse-splicing fitness of 0.0241. Work on C82A A111G A145U C150A U176C yielded a reverse-splicing fitness of 0.03. C82A A111G A120U C169A U176G gave a reverse-splicing fitness of 0.00152. Variant C82A A111G A120U C169A U176C has a reverse-splicing fitness of 0.00316. Work on C82A A111G A120U C169A U176A yielded a reverse-splicing fitness of 0.00268. With C82A A111G A145C C150A U176G the reverse-splicing fitness was 0.00802. Variant C82A A111G A145C C150A U176A has a reverse-splicing fitness of 0.015. For C82A A111G A145C C150A U176C, the reverse-splicing fitness was 0.0184. Variant C82A A111G A145C C150U C169U has a reverse-splicing fitness of 0.0104. For C82A A111G A145C C150U C169A, the reverse-splicing fitness was 0.00814. For C82A A111G A145C C150U C169G, the reverse-splicing fitness was 0.00745. With C82A A111G A145C C150G U176C the reverse-splicing fitness was 0.0181. C82A A111G A145C C150G U176G showed a reverse-splicing fitness of 0.00447. Variant C82A A111G A145C C150G U176A has a reverse-splicing fitness of 0.00908. C82A A111G A145U C169U U176C showed a reverse-splicing fitness of 0.0133. Variant C82A A111G A145U C169U U176G has a reverse-splicing fitness of 0.0055. Work on C82A A111G A145U C169U U176A yielded a reverse-splicing fitness of 0.0124. For C82A A111G A145C C150G C169U U176C, the reverse-splicing fitness was 0.0106. In the case of C82A A111G A145C C150G C169U U176G, the reverse-splicing fitness is reported as 0.00568. C82A A111G A145C C150G C169U U176A showed a reverse-splicing fitness of 0.00799. For C82A A111G C150G U176C, the reverse-splicing fitness was 0.0152. Work on C82A A111G C150G U176A yielded a reverse-splicing fitness of 0.00793. Variant C82A A111G C150G U176G has a reverse-splicing fitness of 0.004. C82A A111U A120C A145C C150A C169A U176G showed a reverse-splicing fitness of 0.00772. Work on C82A A111U A120C A145C C150A C169A U176A yielded a reverse-splicing fitness of 0.0206. For C82A A111U A120C A145C C150A C169A U176C, the reverse-splicing fitness was 0.0164. Variant C82A A111G A145U C150G has a reverse-splicing fitness of 0.0319. Variant C82A A111G A145U C150U has a reverse-splicing fitness of 0.254. Work on C82A A111G A145U C150A yielded a reverse-splicing fitness of 0.0313. C82A A111G A145G showed a reverse-splicing fitness of 0.419. Work on C82A A111G A145C yielded a reverse-splicing fitness of 0.41. With C82A A111G A145U the reverse-splicing fitness was 0.431. Variant C82A A111G A120U U176A has a reverse-splicing fitness of 0.0096. With C82A A111G A120U U176C the reverse-splicing fitness was 0.0161. C82A A111G A120U U176G showed a reverse-splicing fitness of 0.00504. C82A A111G A145G C169G U176C showed a reverse-splicing fitness of 0.0288. In the case of C82A A111G A145G C169G U176G, the reverse-splicing fitness is reported as 0.00515. In the case of C82A A111G A145G C169G U176A, the reverse-splicing fitness is reported as 0.0194. For C82A A111G A145G C150G C169U U176G, the reverse-splicing fitness was 0.00825. Work on C82A A111G A145G C150G C169U U176C yielded a reverse-splicing fitness of 0.0123. C82A A111G A145G C150G C169U U176A gave a reverse-splicing fitness of 0.0112. With C82A A111G A145U C169A U176G the reverse-splicing fitness was 0.00504. C82A A111G A145U C169A U176A gave a reverse-splicing fitness of 0.0131. C82A A111G A145U C169A U176C showed a reverse-splicing fitness of 0.0104. Work on C82A A111G A120U C150U C169A U176C yielded a reverse-splicing fitness of 0.00346. C82A A111G A120U C150U C169A U176A gave a reverse-splicing fitness of 0.00534. With C82A A111G A120U C150U C169A U176G the reverse-splicing fitness was 0.00235. C82A A111G A145C C150U U176G showed a reverse-splicing fitness of 0.0154. Variant C82A A111G A145C C150U U176C has a reverse-splicing fitness of 0.0542. C82A A111G A145C C150U U176A gave a reverse-splicing fitness of 0.0434. For C82A A111G A145G C169U U176G, the reverse-splicing fitness was 0.00606. Work on C82A A111G A145G C169U U176A yielded a reverse-splicing fitness of 0.0137. With C82A A111G A145G C169U U176C the reverse-splicing fitness was 0.0149. With C82A A111G A145C C150U C169A U176G the reverse-splicing fitness was 0.00703. Variant C82A A111G A145C C150U C169A U176A has a reverse-splicing fitness of 0.0133. C82A A111G A145C C150U C169A U176C showed a reverse-splicing fitness of 0.00698. C82A A111G A145U C150A C169A showed a reverse-splicing fitness of 0.0101. Work on C82A A111G A145U C150A C169U yielded a reverse-splicing fitness of 0.0106. C82A A111G A145U C150A C169G showed a reverse-splicing fitness of 0.00826. Work on C82A A111G C150U C169G U176A yielded a reverse-splicing fitness of 0.0188. C82A A111G C150U C169G U176G gave a reverse-splicing fitness of 0.00633. With C82A A111G C150U C169G U176C the reverse-splicing fitness was 0.0194. Work on C82A A111G C150A C169U yielded a reverse-splicing fitness of 0.0114. In the case of C82A A111G C150A C169A, the reverse-splicing fitness is reported as 0.0109. Variant C82A A111G C150A C169G has a reverse-splicing fitness of 0.00926. For C82A A111G A145C C150G C169A, the reverse-splicing fitness was 0.00898. With C82A A111G A145C C150G C169G the reverse-splicing fitness was 0.00702. With C82A A111G A145C C150G C169U the reverse-splicing fitness was 0.00926. C82A A111G C150G C169A U176C showed a reverse-splicing fitness of 0.0122. Variant C82A A111G C150G C169A U176A has a reverse-splicing fitness of 0.0113. For C82A A111G C150G C169A U176G, the reverse-splicing fitness was 0.00753. In the case of C82A A111G A120U C150U C169A, the reverse-splicing fitness is reported as 0.00487. With C82A A111G A120U C150U C169U the reverse-splicing fitness was 0.0051. For C82A A111G A120U C150U C169G, the reverse-splicing fitness was 0.00566. Variant C82A A111G A120U C150U U176C has a reverse-splicing fitness of 0.0108. C82A A111G A120U C150U U176G showed a reverse-splicing fitness of 0.00388. In the case of C82A A111G A120U C150U U176A, the reverse-splicing fitness is reported as 0.00851.
